One may read the Kd as the free concentration of one partner at which half of the binding sites on the other are occupied at equilibrium, for simple one-to-one binding. Broadly, the koff is the first-order rate constant of dissociation. By kon is commonly meant the rate constant with which the complex forms.

No end group written: not given here.

To fix the notation:
T1: P6A-mScarlet-I (Arabidopsis PIF6 residues 14 to 53, APB.A portion, fused to mScarlet-I) (Arabidopsis thaliana, UniProt Q8L5W7 14-53)
T1 construct: mScarlet-I: GenBank APD76536; source: E. coli LOBSTR, purified (IMAC, SENP2 cleavage, second IMAC, optionally anion exchange); not shown: His6-SUMO, N-terminal, cleaved; mScarlet-I, C-terminal, kept
T1 chain (looked up): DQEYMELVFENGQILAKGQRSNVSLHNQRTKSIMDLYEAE

B1: PIF6-mScarlet-I (Arabidopsis PIF6 residues 1 to 100 fused to mScarlet-I) (domain or fragment, Arabidopsis thaliana, UniProt Q8L5W7 1-100, looked up)
chain: MMFLPTDYCCRLSDQEYMELVFENGQILAKGQRSNVSLHNQRTKSIMDLYEAEYNEDFMKSIIHGGGGAITNLGDTQVVPQSHVAAAHETNMLESNKHVD
notes: mScarlet-I: GenBank APD76536; also called AtPIF6; source: E. coli LOBSTR, purified (IMAC, SENP2 cleavage, second IMAC, optionally anion exchange); not shown: His6-SUMO, N-terminal, cleaved
B2: PIF3-mScarlet-I (Arabidopsis PIF3 residues 1 to 100 fused to mScarlet-I) (domain or fragment, Arabidopsis thaliana, UniProt O80536 1-100, looked up)
chain: MPLFELFRLTKAKLESAQDRNPSPPVDEVVELVWENGQISTQSQSSRSRNIPPPQANSSRAREIGNGSKTTMVDEIPMSVPSLMTGLSQDDDFVPWLNHH
notes: mScarlet-I: GenBank APD76536; also called AtPIF3; source: E. coli LOBSTR, purified (IMAC, SENP2 cleavage, second IMAC, optionally anion exchange); not shown: His6-SUMO, N-terminal, cleaved
B3: Arabidopsis thaliana phytochrome B residues 1 to 982, AtPhyB (1-982) (domain or fragment, UniProt P14713 1-982, looked up)
chain: MVSGVGGSGGGRGGGRGGEEEPSSSHTPNNRRGGEQAQSSGTKSLRPRSNTESMSKAIQQYTVDARLHAVFEQSGESGKSFDYSQSLKTTTYGSSVPEQQITAYLSRIQRGGYIQPFGCMIAVDESSFRIIGYSENAREMLGIMPQSVPTLEKPEILAMGTDVRSLFTSSSSILLERAFVAREITLLNPVWIHSKNTGKPFYAILHRIDVGVVIDLEPARTEDPALSIAGAVQSQKLAVRAISQLQALPGGDIKLLCDTVVESVRDLTGYDRVMVYKFHEDEHGEVVAESKRDDLEPYIGLHYPATDIPQASRFLFKQNRVRMIVDCNATPVLVVQDDRLTQSMCLVGSTLRAPHGCHSQYMANMGSIASLAMAVIINGNEDDGSNVASGRSSMRLWGLVVCHHTSSRCIPFPLRYACEFLMQAFGLQLNMELQLALQMSEKRVLRTQTLLCDMLLRDSPAGIVTQSPSIMDLVKCDGAAFLYHGKYYPLGVAPSEVQIKDVVEWLLANHADSTGLSTDSLGDAGYPGAAALGDAVCGMAVAYITKRDFLFWFRSHTAKEIKWGGAKHHPEDKDDGQRMHPRSSFQAFLEVVKSRSQPWETAEMDAIHSLQLILRDSFKESEAAMNSKVVDGVVQPCRDMAGEQGIDELGAVAREMVRLIETATVPIFAVDAGGCINGWNAKIAELTGLSVEEAMGKSLVSDLIYKENEATVNKLLSRALRGDEEKNVEVKLKTFSPELQGKAVFVVVNACSSKDYLNNIVGVCFVGQDVTSQKIVMDKFINIQGDYKAIVHSPNPLIPPIFAADENTCCLEWNMAMEKLTGWSRSEVIGKMIVGEVFGSCCMLKGPDALTKFMIVLHNAIGGQDTDKFPFPFFDRNGKFVQALLTANKRVSLEGKVIGAFCFLQIPSPELQQALAVQRRQDTECFTKAKELAYICQVIKNPLSGMRFANSLLEATDLNEDQKQLLETSVSCEKQISRIVGD
modifications: phycocyanobilin chromophore, covalently bound
notes: the oligomeric state is not measured directly here; also called AtPhyB982; source: E. coli LOBSTR, purified (Co2+-NTA IMAC, anion exchange); plasmid also encodes Synechocystis sp. heme oxygenase 1 and PcyA
B4: P3A-mScarlet-I (Arabidopsis PIF3 residues 14 to 55, APB.A portion, fused to mScarlet-I) (domain or fragment, Arabidopsis thaliana, UniProt O80536 14-55, looked up)
chain: LESAQDRNPSPPVDEVVELVWENGQISTQSQSSRSRNIPPPQ-{mScarlet‑I}
notes: mScarlet-I: GenBank APD76536; source: E. coli LOBSTR, purified (IMAC, SENP2 cleavage, second IMAC, optionally anion exchange); not shown: His6-SUMO, N-terminal, cleaved; mScarlet-I, C-terminal, kept
B5: Arabidopsis thaliana phytochrome B, N-terminal fragment encompassing the N-terminal extension (NTE) and the photosensory core module (AtPhyB PCM) (domain or fragment, UniProt P14713 1-651, looked up)
chain: MVSGVGGSGGGRGGGRGGEEEPSSSHTPNNRRGGEQAQSSGTKSLRPRSNTESMSKAIQQYTVDARLHAVFEQSGESGKSFDYSQSLKTTTYGSSVPEQQITAYLSRIQRGGYIQPFGCMIAVDESSFRIIGYSENAREMLGIMPQSVPTLEKPEILAMGTDVRSLFTSSSSILLERAFVAREITLLNPVWIHSKNTGKPFYAILHRIDVGVVIDLEPARTEDPALSIAGAVQSQKLAVRAISQLQALPGGDIKLLCDTVVESVRDLTGYDRVMVYKFHEDEHGEVVAESKRDDLEPYIGLHYPATDIPQASRFLFKQNRVRMIVDCNATPVLVVQDDRLTQSMCLVGSTLRAPHGCHSQYMANMGSIASLAMAVIINGNEDDGSNVASGRSSMRLWGLVVCHHTSSRCIPFPLRYACEFLMQAFGLQLNMELQLALQMSEKRVLRTQTLLCDMLLRDSPAGIVTQSPSIMDLVKCDGAAFLYHGKYYPLGVAPSEVQIKDVVEWLLANHADSTGLSTDSLGDAGYPGAAALGDAVCGMAVAYITKRDFLFWFRSHTAKEIKWGGAKHHPEDKDDGQRMHPRSSFQAFLEVVKSRSQPWETAEMDAIHSLQLILRDSFKESEAAMNSKVVDGVVQPCRDMAGEQGIDELGA
modifications: phycocyanobilin chromophore, covalently bound
notes: Phytochrome B, Arabidopsis thaliana, GenBank CAA35222.1; N-terminal fragment with the NTE and the PCM (nPAS-GAF-PHY), lacking PAS1, PAS2 and the HKRD; source: E. coli LOBSTR, purified (Co2+-NTA IMAC, anion exchange); plasmid also encodes Synechocystis sp. heme oxygenase 1 and PcyA

One experiment deals with P3A or PIF3. Briefly: FRET or BRET; as a5 (association and dissociation kinetics after a red-light pulse) at several temperatures up to 30 °C; values told for 30 °C or for 30 °C against 15 °C. Background: Bioluminescence resonance energy transfer reports proximity on the nanometre scale.
For experiment [1], the target named is B5. Briefly: FRET or BRET; association kinetics at 15 °C after a 0.5-s pulse of red light (658 nm, 69 mW cm^-2, optical shutter); 20 nM PIF-mScarlet-I variant with 500 to 2,000 nM AtPhyB PCM, or 30 nM P6A-mScarlet-I with 750 to 2,500 nM AtPhyB (1-982); 50 mM Tris/HCl pH 8.0, 20 mM NaCl; pseudo-first-order, linear fit of koFR against the AtPhyB concentration; kaFR corrected for the Pfr fraction; Kd calculated from kdFR and kaFR …. As to conditions: both partners purified.

Experiment [2] has as its target T1, P6A-mScarlet-I (Arabidopsis PIF6 …). Description: FRET or BRET; as a5 (association and dissociation kinetics after a red-light pulse) at several temperatures up to 30 °C; values told for 30 °C or for 30 °C against 15 °C. As to conditions: both partners purified.
Experiment [3] addresses B1. The description is as above. As to conditions: both partners purified.
For experiment [4], the target named is B4. Briefly: FRET or BRET; dissociation kinetics at 15 °C under continuous far-red light (733 nm, 42 mW cm^-2) after saturating red light; same samples as a5; consecutive model (Pfr to Pr reversion, then dissociation); kaR fixed at 0 (Pr state). As to conditions: both partners purified.
For experiment [5], the target named is B2. The experiment is described as above. As to conditions: both partners purified.
For experiment [6], the target named is T1, P6A-mScarlet-I (Arabidopsis PIF6 …). The description is as above. As to conditions: both partners purified.
The target of experiment [7] is B1. Described as above. As to conditions: both partners purified.
Experiment [8] has as its target T1, P6A-mScarlet-I (Arabidopsis PIF6 …). Description: FRET or BRET; equilibrium titration: 20 nM P6A-mScarlet-I with 0 to 2,000 nM AtPhyB PCM at 15 °C after red light (658 nm); 50 mM Tris/HCl pH 8.0, 20 mM NaCl, 100 μg/mL BSA; single-site binding isotherm. As to conditions: both partners purified.

In the case of “Arabidopsis thaliana phytochrome B, N-terminal fragment encompassing the N-terminal extension (NTE) and the photosensory core module (AtPhyB PCM) (from UniProt P14713 1-651) (domain or fragment)”, the fold reduction of the affinity, 30 °C against 15 °C with P3A or PIF3 is 1.4 to 2.6 fold.

Take B1: in experiment [1], the Kd is 133 ± 55 nM, the koff was 0.07 s⁻¹ and the kon is 520000 M⁻¹ s⁻¹.

With B2, in experiment [1], the equilibrium dissociation constant (Kd) is 308 ± 42 nM, the koff was 0.13 s⁻¹ and the kon was 430000 M⁻¹ s⁻¹.

Turning to B3, in experiment [2], the “fold change of kdFR, 30 °C against 15 °C” value is 5 fold and the “fold reduction of the affinity, 30 °C against 15 °C” value stood at 3 fold.

In the case of B4, in experiment [1], the dissociation constant Kd is 322 ± 109 nM, the koff is 0.1 s⁻¹ and the kon was 310000 M⁻¹ s⁻¹.

For B5, the “fold change of kaFR, 30 °C against 15 °C” value in experiment [2] stood at 1.3 fold. Also, the “fold change of kdFR, 30 °C against 15 °C” value in experiment [2] amounted to 6.5 fold. Besides, the “fold reduction of the affinity, 30 °C against 15 °C” value in experiment [3] is about 5 fold. The “kdR (dissociation rate constant of the complex in the Pr state)” value in experiment [4] came out at 1.9 s⁻¹; in [5] it was 1.6 s⁻¹; in [6], 2.5 s⁻¹; in experiment [7], 0.26 s⁻¹. Further, the “KD on the total AtPhyB concentration (not corrected for the Pfr fraction)” value in experiment [8] worked out at 180 ± 110 nM.

These data come from article PMC11638003, “Plant phytochrome interactions decode light and temperature signals” (The Plant Cell, 2024).
